From patent publication US20120321557A1 (FORERUNNER PHARMA RESEARCH, published 2012) come the findings set out here.

The target in test [1] is T1, human ICAM1 (human, UniProt P05362 28-532).
T1 construct: also called ICAM1/BaF3 (cells that carry it)
The test can be described thus: FACS on ICAM1-expressing BaF3 transfectant, anti-mouse IgG-FITC detection. As for the experimental part: (§1) Next, using these cell lines thus established, the cross-reactivity of IB23 with the ICAM family was analyzed. Each 10 μg/ml of the IB23 antibody, an anti-human ICAM1 antibody (R&D Systems, Inc., #BBA3), and an anti-human ICAM5 antibody (R&D Systems, Inc., #MAB1950) were reacted with ICAM1/BaF3 and ICAM5/BaF3. Then, after staining with an anti-mouse IgG-FITC antibody (Beckman Coulter #IM0819), the binding of each antibody was analyzed by FACS (Becton, Dickinson and Company).

Test [2] deals with T2, human ICAM5 (human, UniProt Q9UMF0 32-924).
T2 construct: also called ICAM5/BaF3 (cells that carry it)
T2 sequence: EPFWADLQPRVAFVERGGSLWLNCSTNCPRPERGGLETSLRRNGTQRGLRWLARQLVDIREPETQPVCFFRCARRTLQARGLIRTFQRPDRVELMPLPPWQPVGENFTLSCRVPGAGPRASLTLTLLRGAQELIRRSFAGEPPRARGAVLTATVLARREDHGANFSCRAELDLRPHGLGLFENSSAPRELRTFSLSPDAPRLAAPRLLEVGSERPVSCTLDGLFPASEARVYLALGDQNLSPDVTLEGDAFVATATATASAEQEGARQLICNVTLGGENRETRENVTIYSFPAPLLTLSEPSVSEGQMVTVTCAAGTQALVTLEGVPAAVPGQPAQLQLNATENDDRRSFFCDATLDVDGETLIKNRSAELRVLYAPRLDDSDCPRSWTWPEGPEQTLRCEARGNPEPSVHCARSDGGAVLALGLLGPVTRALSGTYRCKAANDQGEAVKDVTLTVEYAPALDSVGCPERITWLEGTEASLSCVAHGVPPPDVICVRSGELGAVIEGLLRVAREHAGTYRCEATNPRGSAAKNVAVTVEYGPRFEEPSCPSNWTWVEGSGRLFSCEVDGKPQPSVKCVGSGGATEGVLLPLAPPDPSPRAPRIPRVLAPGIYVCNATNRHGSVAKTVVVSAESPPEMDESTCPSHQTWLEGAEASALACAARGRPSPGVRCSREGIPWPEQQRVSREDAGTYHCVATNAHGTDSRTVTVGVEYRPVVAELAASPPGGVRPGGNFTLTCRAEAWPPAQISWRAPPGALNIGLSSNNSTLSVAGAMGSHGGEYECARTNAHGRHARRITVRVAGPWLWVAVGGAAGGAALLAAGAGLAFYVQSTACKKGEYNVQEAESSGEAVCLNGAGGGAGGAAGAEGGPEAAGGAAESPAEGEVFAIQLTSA
The test can be described thus: FACS on ICAM5-expressing BaF3 transfectant, anti-mouse IgG-FITC detection. On the procedure: as §1

T1 sequence (P05362 28-532 K469E limits assumed): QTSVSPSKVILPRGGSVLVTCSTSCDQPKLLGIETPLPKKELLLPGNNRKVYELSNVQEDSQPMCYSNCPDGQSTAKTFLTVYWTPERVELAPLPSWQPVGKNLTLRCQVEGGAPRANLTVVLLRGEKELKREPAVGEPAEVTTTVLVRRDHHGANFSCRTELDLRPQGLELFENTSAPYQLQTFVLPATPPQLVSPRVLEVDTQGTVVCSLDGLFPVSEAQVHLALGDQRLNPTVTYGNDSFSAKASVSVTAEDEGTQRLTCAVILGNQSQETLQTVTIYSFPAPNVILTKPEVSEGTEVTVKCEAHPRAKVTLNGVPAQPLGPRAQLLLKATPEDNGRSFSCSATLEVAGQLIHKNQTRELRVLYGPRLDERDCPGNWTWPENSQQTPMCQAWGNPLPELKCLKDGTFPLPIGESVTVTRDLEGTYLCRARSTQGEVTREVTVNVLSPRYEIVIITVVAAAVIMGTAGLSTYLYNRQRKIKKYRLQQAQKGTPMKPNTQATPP

B1: mouse monoclonal antibody IB23 (antibody, V domains shown)
VH: QVQLQQSGAELAKPGASVKMSCKASGYTFTTYWMHWVKQRPGQGLEWIGYINPNTDYTEYNQKFKDKATLTADKSSSTAFMQLSSLTSEDSAVYYCASSRDAYHGTYWGQGTLVTVSA
VL: DIVMTQSPATLSVTPGDRVSLSCRASQSISDYLHWYQQKSHESPRLLIRYASQSISGIPSRFSGSGSGSDFTLSINNVEPEDVGVYYCQNGHNFPLTFGAGTKLELK
notes: Mouse hybridoma antibody purified on Protein G and detected with anti-mouse IgG-FITC; also called IB23 antibody; mouse IB23 antibody
With B1, the binding result in test [1] and in test [2] was “no binding (tested: 10 µg/ml)” throughout.
